Data as given in US20140193417A1 (LUDWIG INSTITUTE FOR CANCER RESEARCH, published 2014).

Biological target: T1, sodium-dependent phosphate transport protein 2b (NaPi2b, SLC34A2), human, endogenous (human, UniProt O95436 1-690)
T1 construct: whole, on cells; Naturally expressed, N-glycosylated membrane protein of human cancer cell lines (OVCAR-3, SK-RC-18 and others) and tissues; used on intact cells (MHA, flow cytometry), in cell or tissue lysates (Western blot, immunoprecipitation) and in tissue sections; also called MX35 antigen; NaPi2b/MX35
T1 sequence (looked up): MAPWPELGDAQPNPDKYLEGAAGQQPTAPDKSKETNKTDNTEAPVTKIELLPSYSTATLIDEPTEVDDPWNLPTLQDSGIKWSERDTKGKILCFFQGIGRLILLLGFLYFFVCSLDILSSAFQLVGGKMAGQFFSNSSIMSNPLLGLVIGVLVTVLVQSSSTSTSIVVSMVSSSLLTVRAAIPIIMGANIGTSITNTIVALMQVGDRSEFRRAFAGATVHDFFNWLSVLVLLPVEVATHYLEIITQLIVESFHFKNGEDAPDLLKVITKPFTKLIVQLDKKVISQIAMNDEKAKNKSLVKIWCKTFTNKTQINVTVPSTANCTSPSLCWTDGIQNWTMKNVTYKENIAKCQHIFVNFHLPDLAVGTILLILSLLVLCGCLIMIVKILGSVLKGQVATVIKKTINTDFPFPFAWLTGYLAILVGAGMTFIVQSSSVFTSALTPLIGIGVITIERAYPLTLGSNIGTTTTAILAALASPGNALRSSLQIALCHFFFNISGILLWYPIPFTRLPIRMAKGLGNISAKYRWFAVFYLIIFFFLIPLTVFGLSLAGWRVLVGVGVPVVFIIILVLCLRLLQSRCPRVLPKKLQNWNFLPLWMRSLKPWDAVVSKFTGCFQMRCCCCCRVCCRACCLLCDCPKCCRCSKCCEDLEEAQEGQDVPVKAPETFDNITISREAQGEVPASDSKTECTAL
Experiment: flow cytometry on SK-RC-18 cells, 20 ug/ml antibody
Description: The binding efficacy of humanized MX35 antibody, synthesized and purified as described above, was compared with the murine version of the MX35 antibody, using fluorescein isothiocyanate—FITC—marker to assess the specific binding to different cells lines in flow cytometry. The cell lines listed in TABLE 4 were trypsinized, adjusted to a concentration of 2.5×10⁵ cells and distributed in 1.5 mL test tubes. After centrifugation the pellet was resuspended in 100 uL of primary antibody (either murine MX35, humanized MX35, hu3S193 or Zenapax®) diluted in the same culture medium used to cultivate the cells in the concentration of 20 μg/ml. In the case of controls “cells only” and FITC-conjugates, the cells were resuspended in 100 μL of medium culture. The mixtures were incubated for 1 h at 4° C. and then washed twice with 200 μL of phosphate buffered saline. The cells were resuspended in 100 μL of secondary antibody-FITC conjugated, either murine or human depending on the MX35 antibody version used. The control “cells only” tube received medium culture only. […] Staining of the cells with the fluorescent probes was measured in a fluid stream in the flow cytometry Guava® ExpressPro (Guava EasyCyte Mini System). For each individual experiment 10,000 events were acquired and counted.

B1: humanized MX35 (huMX35) monoclonal antibody (antibody, V domains shown)
VH: QVQLVQSGAEVVKPGASVKMSCKASGYTFTGYNIHWVKQAPGQGLEWIGAIYPGNGDTSYKQKFRGRATLTADTSTSTVYMELSSLRSEDSAVYYCARGETARATFAYWGQGTLVTVSS
VL: DIQMTQSPSSLSASVGDRVTITCSASQDIGNFLNWYQQKPGKTVKVLIYYTSSLYSGVPSRFSGSGSGTDYTLTISSLQPEDFATYYCQQYSKLPLTFGQGTKLELKR
notes: Produced in Per.C6 cells, protein A purified; also called Human MX35; humanized MX35 antibody
B1: binds.
